Results reported in PMC3895269 (RNA, 2014).

Target: Geobacillus kaustophilus ribosomal protein S18 (Geobacillus kaustophilus, UniProt Q5KU71 1-78)
Experiment: native gel or EMSA

B1: Geobacillus kaustophilus ribosomal protein S6 (natural protein)
chain: MRKYEIMYIIRPNMDDEARQALVERFNNVLKENGAEITNVTDWGKRRLAYEIQKYRDGYYMIVNVVSEPKAVQEFDRLARISEDIIRHIVVKEEE
binding result: binds
